Test results from patent US20030175679A1, “Methods for cell screening of compounds capable of modulating the activity of ubiquitin-ligase scf complexes and their uses” (priority 1999, published 2003).

Tested on: Yeast cells
Experiment: Stability of Ha-labeled hybrid proteins expressed from the GAL1 promoter, measured with anti-Ha antibodies
Type: cell-based, S. cerevisiae
[1] = in the absence of methionine (-Met)
[2] = repressive conditions, in the presence of methionine (+Met)

Molecule | half-life of the hybrid protein [1] [min] | half-life of the hybrid protein [2]
Ha-Met4: Met4 protein derivative with three hemagglutinin (Ha) antigenic units at its amino-terminal end, expressed in yeast under the GAL1 promoter (protein, UniProt P32389 1-672, looked up, N-terminal 3x HA tag, Met4 protein derivative with three hemagglutinin (Ha) antigenic units at its amino-terminal end, expressed in yeast under the GAL1 promoter) Transcriptional activator of …: MKQEQSHEGDSYSTEFINLFGKDTATHPSSNNGANNNGMGSTNSLDQFVATASSSSSLVTSSENRRPLIGDVTNRGNTNLYDHAVTPEILLEQLAYVDNFIPSLDNEFSNVDWNVNTTHNNANNNGADTFSSINANPFDLDEQLAIELSAFADDSFIFPDEDKPSNNNNNSNNGNDDHSNHDVLHEDPSTNNRQRNPHFLTQRRNTFLTSQYDQSKSRFSSKNKRNGNNGETNNFGDNMQNNHPFEPNFMGSPSQFPADATNMTSIDHGGFTNVDITSTENNTTGDNGVDALSNLLHRTTHTPNRSSPLSNVTSAQNSSSQQRKHSESKVDSNSDNNSSNKAPNITVPDYSIIPTSVLVTLLPRVNVPNGAYNSLISAGFDNDQIDAIAAIMAYHHQKKIRENNSNNNKNINTNDSQEAPILKNINELLSVLIPPSPAETRGPTTLSTSPSFNEHGVVAEASFLSSILELGIKHPKSNNIHNQRQPSRNDHKISRESDGNNGNDNVHHNNAVIKSSTTRGDEIAKIRSEPTLNASSSDHKENSLKRSHSGDLKNKKVPVDRKYSDNEDDEYDDADLHGFEKKQLIKKELGDDDEDLLIQSKKSHQKKKLKEKELESSIHELTEIAASLQKRIHTLETENKLLKNLVLSSGETEGIKKAESLKKQIFEKVQKE | ~20 | ~5 min
Ha-Met28: full-length Met28 protein with a repetition of 3 hemagglutinin (Ha) antigenic units at its amino-terminal end (protein, UniProt P40573 1-187, looked up, full-length N-terminal 3x HA tag, full-length Met28 protein with a repetition of 3 hemagglutinin (Ha) antigenic units at its amino-terminal end) MSAKQGWEKKSTNIDIASRKGMNVNNLSEHLQNLISSDSELGSRLLSLLLVSSGNAEELISMINNGQDVSQFKKLREPRKGKVAATTAVVVKEEEAPVSTSNELDKIKQERRRKNTEASQRFRIRKKQKNFENMNKLQNLNTQINKLRDRIEQLNKENEFWKAKLNDINEIKSLKLLNDIKRRNMGR | ~20 | do not modify the half-life
Ha-Met30: full-length Met30 protein with a repetition of 3 hemagglutinin (Ha) antigenic units at its amino-terminal end (protein, UniProt P39014 1-640, looked up, full-length N-terminal 3x HA tag, full-length Met30 protein with a repetition of 3 hemagglutinin (Ha) antigenic units at its amino-terminal end) MRRERQRMMSFEDKDKDDLDNSNSNNSSEMTDTAMMPPLKRLLITGSSDDLAQGSSGKKKMTMATRSPSSSPDLATNDSGTRVQPLPEYNFTKFCYRHNPDIQFSPTHTACYKQDLKRTQEINANIAKLPLQEQSDIHHIISKYSNSNDKIRKLILDGILSTSCFPQLSYISSLVTHMIKIDFISILPQELSLKILSYLDCQSLCNATRVCRKWQKLADDDRVWYHMCEQHIDRKCPNCGWGLPLLHMKRARIQQNSTGSSSNADIQTQTTRPWKVIYRERFKVESNWRKGHCRIQEFKGHMDGVLTLQFNYRLLFTGSYDSTIGIWDLFTGKLIRRLSGHSDGVKTLYFDDRKLITGSLDKTIRVWNYITGECISTYRGHSDSVLSVDSYQKVIVSGSADKTVKVWHVESRTCYTLRGHTEWVNCVKLHPKSFSCFSCSDDTTIRMWDIRTNSCLKVFRGHVGQVQKIIPLTIKDVENLATDNTSDGSSPQDDPTMTDGADESDTPSNEQETVLDENIPYPTHLLSCGLDNTIKLWDVKTGKCIRTQFGHVEGVWDIAADNFRIISGSHDGSIKVWDLQSGKCMHTFNGRRLQRETQHTQTQSLGDKVAPIACVCIGDSECFSGDEFGCVKMYKFDLND | ~20 | do not modify the half-life
